{"source": "paper PMC3547700", "target": "V5-UL56 (HCMV strain AD169), plasmid-expressed (human cytomegalovirus strain AD169)", "data": [{"substance": "FLAG-UL51 (HCMV strain AD169), plasmid-expressed (natural protein)", "values": [{"measurement": "percentage of transfected HEK-293 T cells with nuclear staining of UL56 by confocal microscopy, in the presence of UL51 (UL56 alone exclusively cytoplasmic) (% of cells with nuclear staining)", "result": 62}]}, {"substance": "MYC-UL89 (HCMV strain AD169), plasmid-expressed (natural protein)", "values": [{"measurement": "percentage of transfected HEK-293 T cells with nuclear staining of UL56 by confocal microscopy, in the presence of UL89 (UL56 alone exclusively cytoplasmic) (% of cells with nuclear staining)", "result": 37}, {"measurement": "percentage of transfected HEK-293 T cells with nuclear staining of UL89 by confocal microscopy, in the presence of UL56 (UL89 alone exclusively cytoplasmic) (% of cells with nuclear staining)", "result": 26}]}]}
